Source: publication PMC6356842 (Toxins, 2019)
Where a chain is given by its changes, count along the chain named. Numbers in names are those of the source.

Experiments:
Conditions in all cases: both partners purified
[1] = target: T1, Css4 toxin (Centruroides suffusus, UniProt P60266); experiment: SPR
T1 construct: source: purified from scorpion venom

[2] = target: T2, CeII9 toxin (Centruroides elegans)
T2 construct: also called Cell9; source: purified from scorpion venom
T2 chain: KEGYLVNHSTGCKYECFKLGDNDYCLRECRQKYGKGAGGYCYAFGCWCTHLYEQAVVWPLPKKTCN

[3] = target: T3, Css2 toxin (Centruroides suffusus)
T3 construct: source: purified from scorpion venom
T3 chain: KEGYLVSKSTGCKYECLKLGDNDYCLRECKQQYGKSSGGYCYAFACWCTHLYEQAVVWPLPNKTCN

[4] = target: T4, Cll1 toxin (Centruroides limpidus); experiment: SPR
T4 construct: source: purified from scorpion venom
T4 chain: T2 chain with L5I, H8L, F17Y, R30K, K32Q, N66T

[5] = target: T5, Cll2 toxin (Centruroides limpidus); experiment: SPR
T5 construct: source: purified from scorpion venom
T5 chain: T2 chain with R30K, K32Q, T49N

[6] = target: T6, Cn2 toxin (Centruroides noxius); experiment: SPR
T6 construct: source: purified from scorpion venom

[7] = target: T7, Ct1a toxin (Centruroides tecomanus); experiment: SPR
T7 construct: source: purified from scorpion venom
T7 chain: T2 chain with K32Q

[8] = target: T3, Css2 toxin; experiment: SPR
[9] = target: T6, Cn2 toxin; experiment: SPR; remark: listed apart in the source

B1: scFv 10FG2 (scFv, V domains shown)
VH: QVNLRESGGGLVQPGGSLRLSCAASGFSFGSYGMHWVRQAPGKGLEWVAVISYGGGSKYYADSVKGRFTISRDNSKNTLYLQMNSLRAEDTAVYYCAKDARDCLLCSDWTFDLWGRGTLVTVSS
VL: NFMLTQPHSASGTPGQRVTISCSGSSSNIGSNTVNWYRHLPGSAPELLIGSHNQRPSGVPDRFSGSKSGTSASLAISGLQSEDEADYYCAAWDDSTLGYVFGTGTKLTVL
notes: also called 10F5; scFv 10F5
- binding result [1]: binds
- Kd [2]: 6.1 nM
- koff [2]: 0.000925 s⁻¹
- kon [2]: 150000 M⁻¹ s⁻¹
- Kd [3]: 2.75 nM
- koff [3]: 0.00055 s⁻¹
- kon [3]: 195000 M⁻¹ s⁻¹
- Kd [4]: 0.23 nM
- TR (time of residence) [4]: 264 min
- koff [4]: 6.3e-05 s⁻¹
- kon [4]: 265000 M⁻¹ s⁻¹
- Kd [5]: 4.2 nM
- TR (time of residence) [5]: 18.5 min
- koff [5]: 0.0009 s⁻¹
- kon [5]: 220000 M⁻¹ s⁻¹
- Kd [6]: 0.7 nM
- TR (time of residence) [6]: 163 min
- koff [6]: 0.000102 s⁻¹
- kon [6]: 150000 M⁻¹ s⁻¹
- Kd [7]: 8 nM
- TR (time of residence) [7]: 16.7 min
- koff [7]: 0.001 s⁻¹
- kon [7]: 170000 M⁻¹ s⁻¹

B2: scFv 10F4 (scFv, V domains shown)
VH: B1 VH with T110N
VL: B1 VL
- binding result [1]: binds
- binding result [8]: binds
- binding result [9]: binds

B3: scFv 10F (scFv, V domains shown)
VH: B1 VH with S107A
VL: B1 VL with S25I, G65A
- binding result [9]: binds

B4: scFv 10F1 (scFv, V domains shown)
VH: B1 VH with S107A
VL: B1 VL with S25I
notes: VH, linker (G125 to S139), VL on one chain; numbers run through the whole scFv; 10F with A204G; source: expression vector pSyn1, purified (Ni2+-NTA, Superdex 75 gel filtration), monomer
- binding result [1]: binds
- binding result [8]: binds
- binding result [9]: binds
